Target: T1, CCND1 (G1/S-specific cyclin-D1) peptide on HLA-DPA1*01:03 / HLA-DPB1*04:01 (human)
T1 peptide: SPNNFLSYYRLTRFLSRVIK
Assay: multimer staining

binding result: recognises
B1: 03-CCND1219-238 (TCR, V domains shown)
Valpha: KDQVFQPSTVASSEGAVVEIFCNHSVSNAYNFFWYLHFPGCAPRLLVKGSKPSQQGRYNMTYERFSSSLLILQVREADAAVYYCAVCTLYNFNKFYFGSGTKLNVKP
Vbeta: GVTQTPKFQVLKTGQSMTLQCAQDMNHEYMSWYRQDPGMGLRLIHYSVGAGITDQGEVPNGYNVSRSTTEDFPLRLLSAAPSQTSVYFCASLTDNNEQFFGPGTRLTVL

— patent US20220281942A1 (published 2022)
